Target: endogenous optineurin (rat (endogenous in RGC5)) (UniProt Q8R5M4)
Assay: native gel or EMSA; native blue gel electrophoresis (NativePAGE Novex Bis-Tris gel) of lysates in IP buffer from RGC5 cells or RGC5 cells transfected with pTarget-FLAG-OPTN, non-reducing; Western blot with anti-C-terminal optineurin or anti-FLAG

stoichiometry N: 6
Substance: endogenous optineurin (from UniProt Q8R5M4 1-585) (natural protein)
